This note sets out measurements from patent US12187807B2, “Antibody molecules to C5AR1 and uses thereof” (Visterra, Inc., priority 2020, dated 2025).

Where a chain is given by its changes, count along the chain named.

Holding throughout (assay): Alanine scanning / mutagenesis epitope mapping of C5aR1
Holding throughout (assay type): binding

Test [1] has as its target T1, C5aR1 mutants (N-terminus, ECL1, ECL2, ECL3) (Homo sapiens, UniProt P21730, K279N/Y14F).
T1 sequence (P21730 with tags, fused parts or gaps Y14F/K279N): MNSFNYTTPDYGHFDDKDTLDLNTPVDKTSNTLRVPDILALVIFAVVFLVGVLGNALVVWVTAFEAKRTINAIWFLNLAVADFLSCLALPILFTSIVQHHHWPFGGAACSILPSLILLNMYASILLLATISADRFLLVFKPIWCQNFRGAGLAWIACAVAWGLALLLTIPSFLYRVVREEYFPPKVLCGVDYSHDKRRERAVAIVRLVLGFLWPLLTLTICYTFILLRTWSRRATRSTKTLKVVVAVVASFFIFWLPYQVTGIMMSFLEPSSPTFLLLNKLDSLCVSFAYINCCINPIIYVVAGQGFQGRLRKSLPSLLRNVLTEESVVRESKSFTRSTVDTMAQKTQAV
Conditions: Y14F. The source says: (§1) FIG. 5A is a diagram showing the results of alanine scanning mutations of site I interaction with mab 583. The N-terminal amino acid sequence of C5aR1 is listed across the top of the figure. Glycosylation sites are indicated by rectangle boxes. The only natural glycosylation site is at position N5. The other sites were introduced by mutagenesis. Mutations that abolished clone 583 binding are circled. The sulfated tyrosines at positions 11 and 14 are marked with a star sign. FIG. 5B is a diagram showing results of alanine scanning mutations of site I interaction with mab 66. Mutations that abolished clone 66 binding are circled. The sulfated tyrosines at positions 11 and 14 are marked with a star sign.
(§2) Ala substitutions of T8 & D10 moderately reduces its affinity while Y11 & D15 abolishes mAb binding. […] N-glycosylation of at N17 or D17P also abolishes mAb binding. N5 glycan is tolerated but a tandem glycosylation (N5 & N17) is not tolerated. mAb core epitopes are T8-G12 but nature of AA present in D15-D18 influence its binding. […] The core epitope appears to be located near T8-G12, with additional contributions from D15-D18.
(§3) Clone 66 was previously characterized as a site I binder and its binding is dependent on tyrosine sulfation at positions 11Y and/or 14Y. […] It should be noted that the only the only non-human species to retain clone 66 binding was baboon, which is the only NHP that retains the DYGHY motif.
(§4) However, it was unknown if additional contacts were made with ECL1 or ECL3. […] The data is highlighted in FIG. 5C-5E.
(§5) The core epitope of clone 11 is from E180-P183; the core epitope of clone 329 is from E180-P184; and the core epitope of clone 336 is from R178-P183. […] The data for clones 11, 329, and 336 is highlighted in FIG. 5F.

In test [2] the target is T2, C5aR1 mutants (N-terminus, ECL1, ECL2, ECL3) (Homo sapiens, UniProt P21730, D10A/K279N).
T2 sequence (P21730 with tags, fused parts or gaps D10A/K279N): T1 sequence (P21730 with tags, fused parts or gaps Y14F/K279N) with D10A, F14Y
Conditions: D10A.
Text: as §1, §2, §3, §4, §5

Test [3] concerns the target T3, C5aR1 mutants (N-terminus, ECL1, ECL2, ECL3) (Homo sapiens, UniProt P21730, K17N/K279N).
T3 sequence (P21730 with tags, fused parts or gaps K17N/K279N): T1 sequence (P21730 with tags, fused parts or gaps Y14F/K279N) with F14Y, K17N
Conditions: insertion of a glycan at K17N.
Text: as §1, §2, §3, §4, §5

Test [4] deals with T4, C5aR1 mutants (N-terminus, ECL1, ECL2, ECL3) (Homo sapiens, UniProt P21730, K279N/T8A).
T4 sequence (P21730 with tags, fused parts or gaps T8A/K279N): T1 sequence (P21730 with tags, fused parts or gaps Y14F/K279N) with T8A, F14Y
Conditions: T8A.
Text: as §1, §2, §3, §4, §5

For test [5], the target named is T5, C5aR1 mutants (N-terminus, ECL1, ECL2, ECL3) (Homo sapiens, UniProt P21730, K279N/Y11A).
T5 sequence (P21730 with tags, fused parts or gaps Y11A/K279N): T1 sequence (P21730 with tags, fused parts or gaps Y14F/K279N) with Y11A, F14Y
Conditions: Y11A.
Text: as §1, §2, §3, §4, §5

B1: clone 66: anti-C5aR1 Site I antibody; VH SEQ ID NO: 483, VL SEQ ID NO: 543 (antibody, V domains shown)
VH: QVQLQQSDAELVKPGASVKISCKASGYTFIDHAIHWVKQRPEQGLEWIGYISPGNGEIKYNEKFKAKATLTADKSSSAAYMQLNSLTSADSAVYFCKRALFYYTGKYQPMDYWGQGTTVTDSS
VL: DIVMTQSQKFMSTTAGDRVSITCKASQNVGSAVVWYQQKPGRSPKLLIYSSSIRYTGVPDRFTGSGSGTDFTLTINSVQSEDLADYFCQQYNSFPLTFGAGTKLEIK
On to B1, for which, in test [1], the “binding to C5aR1 mutant” value is listed as “abolished binding”.

B2: clone 583: anti-C5aR1 Site I antibody; VH SEQ ID NO: 536, VL SEQ ID NO: 595 (antibody, V domains shown)
VH: EVQLVESGGGLVKPGGSLKLSCAASGFTFNAYAMSWVRQTPEKRLEWVASISTGGNTYCPDSVKDRFTVSRDNVRNILYLQMSSLRSEDTAMYYCTRGYQRFSGFAYWGQGTLVTVS
VL: DVVMTQTPLSPPVSLGYQASISCRSSQSLVHSNGNTYLNWYLQKPGQSPKLLIYKVSNRLSGVPDRFSGSGSGTDFTLKISRVETEDLGVYFCSQSTHVPYTFGGGTKLEIK
Take B2: the “binding to C5aR1 mutant” value in test [2] was “moderately reduce binding”; in test [3] it was “abolishes binding”; in test [4], “moderately reduce binding”; in test [5], “abolishes binding”.
